Paper PMC6018088

Experiments:
[1] = molecular target: T1, HapR (Vibrio cholerae O1 El Tor C7258?) (UniProt Q4F6W7); assay: DNase I footprinting; conditions: […]; buffer, pH and temperature not given ([…]
T1 sequence: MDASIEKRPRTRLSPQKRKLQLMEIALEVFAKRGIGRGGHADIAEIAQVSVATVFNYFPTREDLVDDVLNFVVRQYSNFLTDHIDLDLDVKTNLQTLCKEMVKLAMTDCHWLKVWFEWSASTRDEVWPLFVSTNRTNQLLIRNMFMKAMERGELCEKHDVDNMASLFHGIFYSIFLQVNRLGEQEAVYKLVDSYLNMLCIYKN

[2] = molecular target: T2, Fur (Vibrio cholerae O1 El Tor C7258?) (UniProt P0C6C8); assay: DNase I footprinting; conditions: DNase I footprinting with FAM/HEX-labeled probes and RQ1 DNase I; buffer, salt, pH and temperature not given (cites earlier work)
T2 sequence: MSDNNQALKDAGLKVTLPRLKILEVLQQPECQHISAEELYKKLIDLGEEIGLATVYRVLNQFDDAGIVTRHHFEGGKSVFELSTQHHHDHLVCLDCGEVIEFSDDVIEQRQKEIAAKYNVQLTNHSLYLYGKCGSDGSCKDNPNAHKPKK

GTAAAACGACGGCCAGTCTTATGTGTAAGCGTATTGAAATCTTTAGAGTTAAAATGGAGAACTTAACTTTTTTTAAATTATTCAATTAATCTTTAAATCAACCTTATAAATTAATTCAGACTAAATTAGTTCAAATTAAATTAGGCTCATTAAATAATATGAATATCAGTAATTGTTATTTTAGGAAGAAATTATTTTACAGCAAATAAAAAGTCTTTAGAGGCTAAAATCTGTGATCCGGTCATAGCTGTTTCCTG (double strand) [hlyA promoter fragment]
binding [1]: binds
binding [2]: binds
